Measured values published in PMC7788105 (iScience, 2020).

Molecular target: T1, human PD-1 (programmed cell death receptor 1) (human, UniProt Q15116 25-170, 15N-labeled in the AIDA-NMR assay; covalently labeled with a fluorophore in the MST assay)
T1 construct: Programmed cell death receptor 1 (PD-1, CD279), human; In the cell-based ICB assays hPD-1 stands on Jurkat effector cells; also called hPD-1; CD279
Assay: MST; hPD-1 covalently labeled with a fluorophore, incubated with increasing concentrations of unlabeled hPD-L1 or mPD-L1; two independent dilution series, KD model
Conditions: both partners purified

T1 sequence (Q15116 25-170): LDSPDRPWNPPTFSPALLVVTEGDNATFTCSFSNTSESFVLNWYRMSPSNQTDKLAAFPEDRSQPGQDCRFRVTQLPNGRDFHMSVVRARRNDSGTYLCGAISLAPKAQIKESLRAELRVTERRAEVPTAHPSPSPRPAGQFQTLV

B1: mouse PD-L1 (ligand)
chain: FTITAPKDLYVVEYGSNVTMECRFPVERELDLLALVVYWEKEDEQVIQFVAGEEDLKPQHSNFRGRASLPKDQLLKGNAALQITDVKLQDAGVYCCIISYGGADYKRITLKVNAPY
modifications: fluorescently labeled in the MST assay with antibodies
notes: PD-L1, mouse; In the h/mICB assay mPD-L1 is endogenous on IFN-gamma-treated B16-F10/TCRAct cells; also called mPD-L1
- Kd: 3.2 ± 0.2 µM
